Laboratory results from patent publication US20060134801A1, “Methods and compositions involving MDA-7” (Board of Regents, The University of Texas System, priority 2003, published 2006).

Columns and labels:
HUVEC and HMVEC = experiment: Endothelial cell proliferation assay (trypan blue); type: cell-based, human; conditions: 1, 5, 10, 50 ng/ml; 1 ng/ml bFGF; vs PBS
Protocol: To test the effect of sMDA-7 protein on cell proliferation, endothelial cells (HUVEC, HMVEC) were serum-starved overnight. The next day, cells were seeded in 2-well chamber slides (1−10^4/well). The cells were allowed to adhere and spread for 4-6 h, and fresh medium containing 1 ng/ml of bFGF as a proangiogenic stimulator, and various concentrations of sMDA-7/IL-24 (1, 5, 10, and 50 ng/ml) was added. Cells treated with PBS served as controls. Cells were then harvested 3 days after treatment and cell proliferation determined by trypan blue exclusion assay method as previously described (Saeki et aL, 2000). The effect of sMDA-7 on lung tumor cell (H1299, and A549) proliferation was also evaluated. The experimental conditions were the same as described above for endothelial cells except that tumor cells were not stimulated with bFGF.

A375.S2 [1] = experiment: Trypan blue viability; type: cell-based, human; conditions: 40 ng/ml, 3 days
Text: (§1) rhMDA-7 (IL-24) protein was purified from 293-mda7 cells using affinity chromatography. Various lots of protein ranged from 30% ->80% purity based upon silver stain. The rhMDA-7 protein was applied to melanoma cell lines, and cells assessed for viability using the Trypan blue assay. […] Treatment of melanoma cells with rhMDA-7 results in rapid activation (via phosphorylation) of STAT3. The cytotoxicity observed in melanoma cells is inhibited by anti-MDA-7 antibodies.
(§2) The mechanism of the anti-tumor activity of rhMDA-7 was also evaluated. Melanoma cells were treated with rhMDA-7 protein and assessed for apoptosis using the TUNEL assay. […] These studies were performed with purified rhMDA-7 protein. The melanoma cells have also been treated with supernatant from 293-mda7 cells or control 293 cells. Only the 293-mda7 supernatant causes cell killing.

A375 [2] = experiment: Trypan blue viability; type: cell-based, human; conditions: 40 ng/ml, 3 days
Text: as §1, §2

MeWo [3] = experiment: Trypan blue viability; type: cell-based, human; conditions: 40 ng/ml, 3 days
Text: as §1, §2

SK-Mel-1 [4] = experiment: Trypan blue viability; type: cell-based, human; conditions: 40 ng/ml, 3 days
Text: as §1, §2

WM35 [5] = experiment: Trypan blue viability; type: cell-based, human; conditions: 40 ng/ml, 3 days
Text: as §1, §2

WM793 [6] = experiment: Trypan blue viability; type: cell-based, human; conditions: 40 ng/ml, 3 days
Text: as §1, §2

A375.S2 [7] = experiment: TUNEL apoptosis assay; type: cell-based, human; conditions: 40 ng/ml, 3 days
Protocol: as §2

A375 [8] = experiment: TUNEL apoptosis assay; type: cell-based, human; conditions: 40 ng/ml, 3 days
Protocol: as §2

MeWo [9] = experiment: TUNEL apoptosis assay; type: cell-based, human; conditions: 40 ng/ml, 3 days
Protocol: as §2

SK-Mel-1 [10] = experiment: TUNEL apoptosis assay; type: cell-based, human; conditions: 40 ng/ml, 3 days
Protocol: as §2

WM35 [11] = experiment: TUNEL apoptosis assay; type: cell-based, human; conditions: 40 ng/ml, 3 days
Protocol: as §2

WM793 [12] = experiment: TUNEL apoptosis assay; type: cell-based, human; conditions: 40 ng/ml, 3 days
Protocol: as §2

PAC1 SMC = experiment: Cell death after recombinant MDA-7; type: cell-based, rat
Protocol: Cell viability was determined using the Trypan-blue exclusion assay. Briefly, total cells (suspension+trypsinized) were mixed 1:1 with Trypan blue solution (Gibco-BRL) and then observed under a hemocytometer via light microscopy. The percent of blue cells (dead cells) were counted (an average count of 3-5 fields were made).
Cells are plated in chamber slides and treated with MDA-7 protein for 60 minutes and then washed thoroughly with PBS (3×). The cells are then fixed with methanol:acetic acid (95:5 vol:vol) and stained with anti-pStat3 monoclonal antibody (1:1000 dilution; Cell Signalling) for 1 h at 4° C. The cells are then washed 3× with PBS and treated with secondary antibody (1:1000 dilution; Texas Red-conjugated-Rabbit anti mouse IgG; Sigma) for 1 h at 4° C. The cells are then washed and examined under fluorescence microscopy.

HUVECs = experiment: Clonogenic survival of endothelial cells after irradiation; type: cell-based, human; conditions: MDA-7 protein 10 ng/ml; angiostatin, endostatin 100 ng/ml; 12 h before irradiation
Protocol: Twelve hours after seeding HUVECs in 4-well plates (Nunc, Roskilde, Denmark), medium was replaced with serum/growth factor-free medium. After serum/growth factor starvation for 12 hours, cells were treated with complete medium containing either MDA-7 protein (10 ng/ml) (removed from cultures of 293 cells), angiostatin (100 ng/ml), or endostatin (100 ng/ml). Twelve hours later, cells were irradiated with ^137CS unit (3.4 Gy/min) at room temperature, trypsinized and counted. Known numbers of cells were replated in 60 mm culture dishes and incubated to allow macroscopic colony development. Colonies were counted after 14 days, and the percent plating efficiency and surviving fractions following given treatments were calculated based on the survival of non-irradiated cells.

A549 and H1299 = experiment: Effect of secreted MDA-7 protein on lung cancer cells; type: cell-based, human
Protocol: The number of apoptotic cells was measured by propidium iodide staining and FACS analysis. Cells were harvested, pelleted by centrifugation and resuspended in phosphate-buffered saline containing 50 μg/ml propidium iodide, 0.1% Triton X-100, and 0.1% sodium citrate. Samples were stored at 4° C. for 1-3 hours and vortexed prior to FACS analysis (Becton-Dickenson FACScan, Mountain View, Calif.; FL-3 channel).

B1: sMDA-7: soluble secreted human MDA-7 (IL-24) protein purified from stably transfected 293-mda-7 cells (protein)
chain: AQGQEFHFGPCQVKGVVPQKLWEAFWAVKDTMQAQDNITSARLLQQEVLQNVSDAESCYLVHTLLEFYLKTVFKNYHNRTVEVRTLKSFSTLANNFVLIVSQLQPSQENEMFSIRDSAHRRFLLFRRAFKQLDVEAALTKALGEVDILLTWMQKFYKL
antiproliferative activity (HUVEC and HMVEC): no significant antiproliferative activity | % Dead (A375.S2 [1]): 22.2% | % Dead (A375 [2]): 26.6% | % Dead (MeWo [3]): 20% | % Dead (SK-Mel-1 [4]): 5.2% | % Dead (WM35 [5]): 17.6% | % Dead (WM793 [6]): 5.2% | % TUNEL Positive (A375.S2 [7]): 12.3% | % TUNEL Positive (A375 [8]): 18.78% | % TUNEL Positive (MeWo [9]): 12.11% | % TUNEL Positive (SK-Mel-1 [10]): 5.0% | % TUNEL Positive (WM35 [11]): 17.88% | % TUNEL Positive (WM793 [12]): 9.88% | cell death (PAC1 SMC): No statistically significant increase in cell death | radiosensitization of HUVECs (HUVECs): sensitized | cell growth inhibition or cell death (A549 and H1299): did not induce cell growth inhibition or cell death
